Literature values as cited in PMC10952613.
Values joined by “and” are separate entries in the source; they are usually repeats but may differ in a detail not shown here. Equal values may be shown once.

Biological target: EGFR (Homo sapiens) (UniProt P00533)

Kd: < 1 nM and > 10 nM
Substance: EGF (from UniProt P01133)
